Measured values published in the supplement of paper PMC12042874.
± gives the uncertainty stated by the source.

Experiment: amyloid nucleation score (Sup35N fusion, yeast selection) (log enrichment); library NNK3; higher = more nucleation; inactive = no reads after selection
Method in brief: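 Peptides of 20 random codons, each fused to Sup35N, were expressed in psi-negative yeast. Cells were induced with 100 μM copper sulfate for 24 hours and grown 7 days at 30°C on medium lacking adenine and uracil, and plasmid inserts before and after selection were Illumina-sequenced. Nucleation scores are DiMSum log enrichments of output over input reads, centred on the mode score of non-aggregating sequences, and sequences under 100 input reads were excluded.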

Substance	amyloid nucleation score
AALAY	inactive
AAPKGGYPVLCCSVRTGRN	0.804 ± 0.13
AASEPGSKRLEAAQWVPVAS	inactive
AASIFGNSV	inactive
AAVWRVVKRNLCHEIGERTA	inactive
ACANYCGSFSTTTAEYDVPS	inactive
ACFLVFGIYQEVMHDCIGRS	inactive
ACGRVNVCYLTPMVRHSGRS	inactive
ACLLVRYHTDDSNKRCSL	inactive
ACNSPEVLQNLQRLRSCGRR	inactive
ACYITTFLGADSVVEYQNDE	inactive
ADIGPHRCVLGAMMRWCRQT	inactive
ADLPCDVATNLVPLTRSSQM	inactive
ADNIGRFVYCYCSVLQTTIS	0.401 ± 0.21
ADNTDMKMTEVGTHHNGNQN	inactive
ADWRIKFYGCGDLGLFWES	inactive
ADYLLSYACQSTLSHQKKRP	-0.854 ± 1.7
AEGYFRSLSTIRGSLLDLSA	inactive
AEHYVRYRRCSATWRICWMY	inactive
AELSIADPTEMSGRVFACNV	inactive
AEQCEPLWCFWKKRSL	0.792 ± 0.18
AETQCSSYDLCDTPSLFDVR	inactive
AEVPSFECFTVPVFLRSIAV	inactive

Substance	amyloid nucleation score
AEYKNGTLRRRTRRVKSRRI	inactive
AFCLQYVCYAKLMGNVNNTC	1.75 ± 0.084
AFFWCR	0.314 ± 0.25
AFKMVLIGFMSMVERSNVHG	inactive
AFLFTLL	inactive
AFTRQIIWRDGGERPPWMRV	inactive
AFVNLYGKSARQSRQPMA	inactive
AGEKPNSIFYSTHSSRSFSN	0.965 ± 0.17
AGGCFISARSIRNCAHMLSR	inactive
AGKKLSRITTWSNTLLDPKS	inactive
AGLSQNRSRIRSY	-0.2 ± 0.81
AGNGPLSIYPMILMWMRVGR	inactive
AGRNMSLCNLHLILLCTSKC	inactive
AGWNMLVMTLCSTLFSQY	inactive
AHDRIFWNGPYNRISYAAFR	inactive
AHRCFFHLSRHVRKYAIRQR	inactive
AIFFSFYRSFY	1.86 ± 0.053
AIFTFVPLSPTRTHGWDHCR	inactive
AIIDYFMM	inactive
AIISWQTLMWLYL	inactive
AINDMRPVKSRGGVVELYML	inactive
AISGIPESIVMLSYFRL	inactive
AITHL	inactive

Substance	amyloid nucleation score
AIYLSFRGNA	1.65 ± 0.071
AKATMPIT	inactive
AKSPL	-0.681 ± 0.96
ALCMIYFW	2.79 ± 0.076
ALGKRSLLR	inactive
ALLFLIERALCPSCK	inactive
ALSMLTG	inactive
ALVAKVVIGSRW	0.569 ± 0.3
ALVAPKAGAFMSLKVQLGMP	1.67 ± 0.073
ALWYENDCRWLDEVHRARTG	inactive
ALYTCMNLSYPLHSEFVTPR	inactive
AMNPLRLGLWSYNRLAWNMS	inactive
AMVTVELSDNYFWNLHTVAS	inactive
ANAVLKIFTSVMGSVNS	inactive
ANLADKILFFGSPCRVMHPV	inactive
ANMKINVVLLNDCGWGR	1.5 ± 0.12
ANPFFSLDK	inactive
ANSNAFIQSDHIRYLLDFAM	0.725 ± 0.18
ANSTAAVKSLGRV	inactive
ANVHNTENLRGLILCRRLLH	inactive
APKCNSTMCSCALMTLFLIS	2.14 ± 0.085
APLEFLSSLDWIRPELALTF	inactive
APPGFFIIVMSCWCYITRAL	inactive

Substance	amyloid nucleation score
APSYISRFVLLTDMPEAQTL	inactive
APWYVNWGMYNCEWGRGS	inactive
AQALRSVPEVWGEFTRSS	inactive
AQEYRMQHRLGGL	inactive
AQILSYVVSYSDPERHFSVM	inactive
AQKFSIWLCTTICINTDFDF	2.31 ± 0.06
ARAYRDQGWPEKEIAQHK	inactive
ARFMC	inactive
ARLFKGYSVVLCLCVSHR	inactive
ARLHVILCDGCHVRMCPEMG	inactive
ARMVVVLKRFCGVCMMSLFL	inactive
ARRDLFHWCRRQSCVYN	-0.275 ± 1.1
ARYDRS	inactive
ASAEEGWQNCEK	inactive
ASCSGIC	-0.956 ± 2.4
ASENLAEVLIVT	inactive
ASQFRCDHCMPRLKGETMET	inactive
ASRIDINRIWFVFWIQAIKS	inactive
ASSRSHPV	inactive
ASSSNGIVTFNNPR	inactive
ASTSD	inactive
ASVKGDRDDELSIKYVFGVG	inactive
ATCRRFTLVQPSYLVPCEPY	inactive

Substance	amyloid nucleation score
ATDNVCVI	inactive
ATSCILMMDLSRYYVGLYHR	0.88 ± 0.094
ATVTWHYAAWTWLGFRPSSL	inactive
AVASSRYNLEYLSRSLCVMS	inactive
AVIWGEAPRIFLTCGALRRE	inactive
AVLGLMLPCFRARRAWIAPP	-0.22 ± 1.5
AVLHMSCNWDKQFYNLLCFC	inactive
AVQHIVEFILICQMFTYTHH	inactive
AVSSSLNWLGFVRISGSRY	-0.432 ± 1
AVSTTTSMVINRLRACKYAY	inactive
AVTYNGYDHYYRDVARHCLR	inactive
AVVIGDDEVVSDYCLLL	0.377 ± 0.27
AWFTEVYFKPSFRKR	inactive
AWGYYPSLCGKEDVYSWGWG	inactive
AWRAISDKTDGGSYDKSVIV	-0.364 ± 0.8
AWRCLGSYCMRLRVSIKSQ	inactive
AWRRSSEGYRFGNDYVTRAT	inactive
AWSGFE	0.01 ± 1.2
AWVDWKWRNGRSLAS	inactive
AWWYGLSMYIKKCILGSRFE	inactive
AYLTI	inactive
AYSDFRLTLSSYIVRANETC	inactive
AYSFNSFRASGRHLWFTVCP	inactive

Substance	amyloid nucleation score
AYVRLKRCWDTFWLRI	inactive
AYVSHINDMPAFGPKSNKPS	-0.19 ± 0.81
AYYNMK	-0.111 ± 0.21
CAKLLYGCDTSFREWMVGAE	inactive
CANANVP	inactive
CANNYGGMLRECQVSGYSCM	inactive
CASSNRRESSYVLYSQWDIG	inactive
CAVFRVSRISINTDAIFITC	1.74 ± 0.054
CCFVRWGFGC	1.38 ± 0.091
CCMVVTQYYARMMVWGNRPY	inactive
CCTIIRAYVVRELAHINNSW	inactive
CCVSVKYWYYV	2.18 ± 0.058
CCYLLHGGRILMIVVMSHHL	inactive
CDAHSLSMLRVQIK	inactive
CDHFQWYFLDRCLSVRCMIF	0.054 ± 0.36
CDRLIVHLFSHLDSGSSVVL	inactive
CDRRFYRMNLCKNPFNYRFG	0.55 ± 0.16
CDVVSSDMVFDLS	inactive
CDWRESVFRRAVTLPVALWM	inactive
CEEPFETIS	0.949 ± 0.25
CEFRIFNWSFCSKRVGLRYV	inactive
CEFWNKYSNLWIWGWL	0.51 ± 0.31
CEHCMYNRKPR	inactive

Substance	amyloid nucleation score
CELANFKCLLGSQMFSEPLG	inactive
CESDEH	inactive
CFCDVMQFWM	2.4 ± 0.067
CFFEVKRSHSIRVFRIGCGV	inactive
CFFSRFILYPSLTLYMTMLR	inactive
CFLMN	inactive
CFMSLLNF	inactive
CFNNRARP	inactive
CFRCFGKGCHILAYGVYC	inactive
CFRCS	inactive
CGGIAFRNFLMNSGMPLEWK	inactive
CGIRHTVLVVSRVGGYVWCL	-0.156 ± 1.1
CGRNAAVSNARRCCSSKVCM	inactive
CGWMEGLCQLYENKEMKHWH	-0.261 ± 0.88
CHDVLIKWNMVCTSVVEGEH	inactive
CHLCGMYSVCFLARSRLVLE	0.067 ± 0.77
CHNKKWVDFNVCFYNMLSFY	inactive
CHPGASSTGSKLTSRNCL	inactive
CHQKMSVA	inactive
CIAYNMVSDYVSIGFNAGDM	inactive
CIFCRFFKVLVGHSYL	inactive
CIICFGPRNFESRRKQPDWR	inactive
